What was measured:
Test in all cases: cell-based or functional assay
[1] = target: HIV-1 92RW020 envelope glycoprotein (Env) on pseudovirus (HIV-1)
[2] = target: HIV-1 Env of isolate 92UG046 (clade D pseudovirus) (HIV-1)
[3] = target: HIV-1 Env of isolate 93MW959 (clade C) (HIV-1 isolate 93MW959)
[4] = target: HIV-1 Env of isolate 98CN009 (CRF07 BC) (HIV-1 isolate 98CN009)
[5] = target: HIV-1 Env of isolate MGRM-Chronic-B-003, clade B, on pseudovirus (HIV-1)
[6] = target: HIV-1 Env of isolate MGRM-D-003 (clade D pseudovirus) (HIV-1)
[7] = target: HIV-1 Env of isolate MGRM-D-019 (clade D pseudovirus) (HIV-1)
[8] = target: HIV-1 Env of isolate MGRM-D-020 (clade D pseudovirus) (HIV-1)
[9] = target: HIV-1 Env of isolate NL43, clade B, on pseudovirus (HIV-1)
[10] = target: HIV-1 Env of isolate TRJ0.58 (Acute), clade B, on pseudovirus (HIV-1)
[11] = target: HIV-1 Env of pseudovirus MGRM-AG-003 (clade CRF_AG) (HIV-1)
[12] = target: HIV-1 Env of pseudovirus MGRM-F1-016 (HIV-1)
[13] = target: HIV-1 Env of pseudovirus MGRM-G-009 (clade G) (HIV-1)
[14] = target: HIV-1 envelope glycoprotein (Env) of isolate 93RW029, clade A (HIV-1)
[15] = target: HIV-1 envelope glycoprotein (Env) of isolate MGRM-A-010, clade A (HIV-1)
[16] = target: HIV-1 Env of isolate 92UG001 (HIV-1)
[17] = target: HIV-1 Env of isolate 92UG005 (HIV-1)
[18] = target: HIV-1 Env of isolate 92UG024 (clade D), on pseudovirus (HIV-1)
[19] = target: HIV-1 Env of isolate 92WR009 (HIV-1)
[20] = target: HIV-1 Env of isolate 93UG077 (HIV-1)
[21] = target: HIV-1 Env of isolate CAAN.A2 (subtype B) (HIV-1)
[22] = target: HIV-1 Env of isolate MG RM-D-004 (HIV-1)
[23] = target: HIV-1 Env of isolate MG RM-D-022 (HIV-1)
[24] = target: HIV-1 Env of isolate MGRM-A-008 (subtype A) (HIV-1)
[25] = target: HIV-1 Env of isolate MGRM-AG-001 (subtype AG) (HIV-1)
[26] = target: HIV-1 Env of isolate MGRM-AG-008 (subtype AG) (HIV-1)
[27] = target: HIV-1 Env of isolate MGRM-C-001 (subtype C) (HIV-1)
[28] = target: HIV-1 Env of isolate MGRM-C-004 (subtype C) (HIV-1)
[29] = target: HIV-1 Env of isolate PVO.4 (subtype B) (HIV-1)
[30] = target: HIV-1 Env of isolate SF162 (subtype B) (HIV-1) (UniProt P19550)
[31] = target: HIV-1 Env of isolate VLGCB3 (subtype B) (HIV-1)
[32] = target: HIV-1 MGRM-C-027 Env (pseudovirus, clade C) (HIV-1)
[33] = target: HIV-1 MGRM-D-001 Env (pseudovirus) (HIV-1)
[34] = target: HIV-1 envelope glycoprotein (Env) of isolate MGRM-C-012 (HIV-1)
[35] = target: aMLV envelope (negative control pseudovirus)

1443_C16 (PG16) (TCN-116) (antibody), sequence (VH): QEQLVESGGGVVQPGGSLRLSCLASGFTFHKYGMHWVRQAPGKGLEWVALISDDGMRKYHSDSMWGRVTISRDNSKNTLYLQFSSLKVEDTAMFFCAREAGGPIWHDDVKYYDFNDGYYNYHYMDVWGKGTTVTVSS
1443_C16 (PG16) (TCN-116) (antibody), sequence (VL): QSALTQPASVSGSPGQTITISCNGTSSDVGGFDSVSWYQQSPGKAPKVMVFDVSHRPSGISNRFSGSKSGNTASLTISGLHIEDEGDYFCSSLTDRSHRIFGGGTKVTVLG
5329_C19 (PGT-136) (antibody), sequence (VH): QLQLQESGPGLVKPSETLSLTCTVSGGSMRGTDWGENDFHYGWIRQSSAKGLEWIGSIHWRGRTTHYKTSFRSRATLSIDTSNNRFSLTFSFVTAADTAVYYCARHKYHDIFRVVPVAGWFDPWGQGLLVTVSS
5329_C19 (PGT-136) (antibody), sequence (VL): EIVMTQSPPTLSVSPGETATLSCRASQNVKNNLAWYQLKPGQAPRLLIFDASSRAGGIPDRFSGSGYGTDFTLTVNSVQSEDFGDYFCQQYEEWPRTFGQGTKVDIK

Substance | IC50, pseudovirus neutralization [1] [mg/L] | IC50 (µg/ml), pseudovirus neutralization [2] [µg/mL] | IC50 (µg/ml), pseudovirus neutralization [3] [µg/mL] | IC50 (µg/ml), pseudovirus neutralization [4] [µg/mL] | IC50 (µg/ml), pseudovirus neutralization [5] [µg/mL] | IC50 (µg/ml), pseudovirus neutralization [6] [µg/mL] | IC50 (µg/ml), pseudovirus neutralization [7] [µg/mL] | IC50 (µg/ml), pseudovirus neutralization [8] [µg/mL] | IC50 (µg/ml), pseudovirus neutralization [9] [µg/mL] | IC50 (µg/ml), pseudovirus neutralization [10] [µg/mL] | IC50 [11] [mg/L] | IC50 (µg/ml), pseudovirus neutralization [12] [µg/mL] | IC50 [13] [mg/L] | IC50 (µg/ml), pseudovirus neutralization [14] [µg/mL] | IC50 (µg/ml), pseudovirus neutralization [15] [µg/mL] | IC50 (µg/mL), pseudovirus neutralization [16] [µg/mL] | IC50 (µg/mL), pseudovirus neutralization [17] [µg/mL] | IC50 [19] [mg/L] | IC50 [20] [mg/L] | IC50 neutralization [21] [mg/L] | other results
4E10 (antibody) | 3.38 | 12.2 | 4.55 | 2.46 | 3.5 | 2.49 | 0.04 | > 50 | 4.67 | 11.9 | 0.64 | 7.61 | 1.34 | 15.5 | 14.4 | – | – | – | – | – | –
5147_N06 (PGT-130) (antibody) | – | – | – | – | – | – | – | – | – | – | – | – | – | – | – | > 50 | 0.959 | 1.27 | 21.4 | > 50 | IC50, pseudovirus neutralization [18]: > 10 mg/L; IC50 (µg/mL), pseudovirus neutralization [22]: 1.21 µg/mL; IC50 (µg/mL), pseudovirus neutralization [23]: > 50 µg/mL; IC50 (µg/mL), pseudovirus neutralization [24]: > 50 µg/mL; IC50 (µg/mL), pseudovirus neutralization [25]: > 50 µg/mL; IC50 (µg/mL), pseudovirus neutralization [26]: > 50 µg/mL; IC50 neutralization [27]: > 50 mg/L; IC50 neutralization [28]: 2.76 mg/L; IC50 neutralization [29]: 5.17 mg/L; IC50 neutralization [30]: 0.007 mg/L; IC50 neutralization [31]: 4.6 mg/L; IC50 neutralization [32]: 0.0052 mg/L; Neutralization by PGT-130, IC50 [33]: > 10 mg/L; Neutralization by PGT-130, IC80 [33]: > 10 mg/L; Neutralization by PGT-130, IC90 [33]: > 10 mg/L; Neutralization by PGT-130, IC95 [33]: > 10 mg/L; neutralization IC50 (pseudovirus) [33]: > 10 mg/L; IC50 (µg/mL), pseudovirus neutralization [34]: > 50 µg/mL
1443_C16 (PG16) (TCN-116) (antibody) | 0.004 | 1.42 | 0.007 | 5.76 | 0.19 | 0.01 | 0.01 | 16.3 | 0.02 | 1.16 | > 50 | 1.12 | > 50 | 3.83 | 0.004 | – | – | – | – | – | –
5343_B08 (PGT-135) (antibody) | – | – | – | – | – | – | – | – | – | – | – | – | – | – | – | > 50 | > 50 | > 50 | > 50 | 5.15 | IC50, pseudovirus neutralization [18]: 0.0139 mg/L; IC50 (µg/mL), pseudovirus neutralization [22]: > 50 µg/mL; IC50 (µg/mL), pseudovirus neutralization [23]: > 50 µg/mL; IC50 (µg/mL), pseudovirus neutralization [24]: > 50 µg/mL; IC50 (µg/mL), pseudovirus neutralization [25]: > 50 µg/mL; IC50 (µg/mL), pseudovirus neutralization [26]: > 50 µg/mL; IC50 neutralization [27]: 10.1 mg/L; IC50 neutralization [28]: 0.046 mg/L; IC50 neutralization [29]: > 50 mg/L; IC50 neutralization [30]: 0.023 mg/L; IC50 neutralization [31]: 0.142 mg/L; IC50 neutralization [32]: > 10 mg/L; IC50 (neutralizing activity, pseudovirus) [33]: > 10 mg/L; IC50 (µg/mL), pseudovirus neutralization [34]: 0.017 µg/mL; IC50 (neutralizing activity, pseudovirus) [35]: > 10 mg/L
b12 (antibody) | > 50 | 0.07 | > 50 | 1.52 | > 50 | > 50 | > 50 | > 50 | 0.17 | > 50 | > 50 | > 50 | > 50 | > 50 | > 50 | – | – | – | – | – | –
5329_C19 (PGT-136) (antibody) | – | – | – | – | – | – | – | – | – | – | – | – | – | – | – | > 50 | > 50 | > 50 | > 50 | > 50 | IC50, pseudovirus neutralization [18]: 0.0915 mg/L; IC50 (µg/mL), pseudovirus neutralization [22]: > 50 µg/mL; IC50 (µg/mL), pseudovirus neutralization [23]: > 50 µg/mL; IC50 (µg/mL), pseudovirus neutralization [24]: > 50 µg/mL; IC50 (µg/mL), pseudovirus neutralization [25]: > 50 µg/mL; IC50 (µg/mL), pseudovirus neutralization [26]: > 50 µg/mL; IC50 neutralization [27]: 7.52 mg/L; IC50 neutralization [28]: 0.034 mg/L; IC50 neutralization [29]: > 50 mg/L; IC50 neutralization [30]: 0.482 mg/L; IC50 neutralization [31]: > 50 mg/L; IC50 neutralization [32]: > 10 mg/L; IC50 (neutralizing activity, pseudovirus) [33]: > 10 mg/L; IC50 (µg/mL), pseudovirus neutralization [34]: > 50 µg/mL; IC50 (neutralizing activity, pseudovirus) [35]: > 10 mg/L
2F5 (antibody) | 3.37 | > 50 | > 50 | > 50 | 1 | > 50 | 0.14 | > 50 | 2.02 | > 50 | 0.14 | 21.5 | 7.21 | > 50 | 20.8 | – | – | – | – | – | –
2G12 (antibody) | 0.56 | > 50 | > 50 | > 50 | 0.06 | > 50 | > 50 | > 50 | 0.49 | > 50 | > 50 | > 50 | > 50 | > 50 | 17 | – | – | – | – | – | –
5114_A19 (PGT-128) (antibody) | – | – | – | – | – | – | – | – | – | – | – | – | – | – | – | > 50 | 0.018 | 0.812 | 0.014 | 1.48 | IC50 (µg/mL), pseudovirus neutralization [22]: 24.9 µg/mL; IC50 (µg/mL), pseudovirus neutralization [23]: > 50 µg/mL; IC50 (µg/mL), pseudovirus neutralization [24]: > 50 µg/mL; IC50 (µg/mL), pseudovirus neutralization [25]: 4.73 µg/mL; IC50 (µg/mL), pseudovirus neutralization [26]: 0.668 µg/mL; IC50 neutralization [27]: > 50 mg/L; IC50 neutralization [28]: 0.025 mg/L; IC50 neutralization [29]: 0.005 mg/L; IC50 neutralization [30]: 0.007 mg/L; IC50 neutralization [31]: 0.012 mg/L; IC50 (µg/mL), pseudovirus neutralization [34]: 0.058 µg/mL
1495_C14 (PGC14) (antibody) | 28.6 | > 50 | > 50 | 43 | > 50 | > 50 | > 50 | > 50 | 40 | > 50 | > 50 | > 50 | > 50 | 42 | > 50 | – | – | – | – | – | –
